Measured values taken from FireProtDB (doi:10.1074/jbc.m704364200).

B1: Prolactin, P01236 (parent)
chain: MNIKGSPWKGSLLLLLVSNLLLCQSVAPLPICPGGAARCQVTLRDLFDRAVVLSHYIHNLSSEMFSEFDKRYTHGRGFITKAINSCHTSSLATPEDKEQAQQMNQKDFLSLIVSILRSWNEPLYHLVTEVRGMQEAPEAILSKAVEIEEQTKRLLEGMELIVSQVHPETKENEIYPVWSGLPSLQMADEESRLSAYYNLLHCLRRDSHKIDNYLKLLKCRIIHNNNC

Variants of: B1
Conditions: Homo sapiens; pH 7.4; Thermal; CD; NaH2PO4 100mM; structure 1RW5; whole UniProt chain shown

| Variant | Tm [°C] | change of melting temperature, mutant - wild type (higher = more stable) [°C] | unfolding enthalpy (calorimetric) [kcal/mol] |
| --- | --- | --- | --- |
| MNIKGSPWKGSLLLLLVSNLLLCQSVAPLPICPGGAARCQVTLRDLFDRAVVLSHYIHNLSSEMFSEFDKRYTHGRGFITKAINSCHTSSLATPEDKEQAQQMNQKDFLSLIVSILRSWNEPLYHLVTEVRGMQEAPEAILSKAVEIEEQTKRLLEDMELIVSQVHPETKENEIYPVWSGLPSLQMADEESRLSAYYNLLHCLRRDSHKIDNYLKLLKCRIIHNNNC [G157D] | 84.2 | 3.1 | 58 |
| MNIKGSPWKGSLLLLLVSNLLLCQSVAPLPICPGGAARCQVTLRDLFDRAVVLSHYIHNLSSEMFSEFDKRYTHGRGFITKAINSCHTSSLATPEDKEQAQQMNQKDFLSLIVSILRSWNEPLYHLVTEVRGMQEAPEAILSKAVEIEEQTKRLLEFMELIVSQVHPETKENEIYPVWSGLPSLQMADEESRLSAYYNLLHCLRRDSHKIDNYLKLLKCRIIHNNNC [G157F] | 93.8 | 12.7 |  |
| MNIKGSPWKGSLLLLLVSNLLLCQSVAPLPICPGGAARCQVTLRDLFDRAVVLSHYIHNLSSEMFSEFDKRYTHGRGFITKAINSCHTSSLATPEDKEQAQQMNQKDFLSLIVSILRSWNEPLYHLVTEVRGMQEAPEAILSKAVEIEEQTKRLLELMELIVSQVHPETKENEIYPVWSGLPSLQMADEESRLSAYYNLLHCLRRDSHKIDNYLKLLKCRIIHNNNC [G157L] | 96.8 | 15.7 |  |
| MNIKGSPWKGSLLLLLVSNLLLCQSVAPLPICPGGAARCQVTLRDLFDRAVVLSHYIHNLSSEMFSEFDKRYTHGRGFITKAINSCHTSSLATPEDKEQAQQMNQKDFLSLIVSILRSWNEPLYHLVTEVRGMQEAPEAILSKAVEIEEQTKRLLENMELIVSQVHPETKENEIYPVWSGLPSLQMADEESRLSAYYNLLHCLRRDSHKIDNYLKLLKCRIIHNNNC [G157N] | 89.8 | 8.7 |  |
| MNIKGSPWKGSLLLLLVSNLLLCQSVAPLPICPGGAARCQVTLRDLFDRAVVLSHYIHNLSSEMFSEFDKRYTHGRGFITKAINSCHTSSLATPEDKEQAQQMNQKDFLSLIVSILRSWNEPLYHLVTEVRGMQEAPEAILSKAVEIEEQTKRLLEPMELIVSQVHPETKENEIYPVWSGLPSLQMADEESRLSAYYNLLHCLRRDSHKIDNYLKLLKCRIIHNNNC [G157P] | 70.8 | -10.3 | 50.1 |
| MNIKGSPWKGSLLLLLVSNLLLCQSVAPLPICPGGAARCQVTLRDLFDRAVVLSHYIHNLSSEMFSEFDKRYTHGRGFITKAINSCHTSSLATPEDKEQAQQMNQKDFLSLIVSILRSWNEPLYHLVTEVRGMQEAPEAILSKAVEIEEQTKRLLERMELIVSQVHPETKENEIYPVWSGLPSLQMADEESRLSAYYNLLHCLRRDSHKIDNYLKLLKCRIIHNNNC [G157R] | 79 | -2.2 | 55.9 |
| MNIKGSPWKGSLLLLLVSNLLLCQSVAPLPICPGGAARCQVTLRDLFDRAVVLSHYIHNLSSEMFSEFDKRYTHGRGFITKAINSCHTSSLATPEDKEQAQQMNQKDFLSLIVSILRSWNEPLYHLVTEVRGMQEAPEAILSKAVEIEEQTKRLLEVMELIVSQVHPETKENEIYPVWSGLPSLQMADEESRLSAYYNLLHCLRRDSHKIDNYLKLLKCRIIHNNNC [G157V] | 101 | 19.7 |  |
| MNIKGSPWKGSLLLLLVSNLLLCQSVAPLPICPGGAARCQVTLRDLFDRAVVLSHYIHNLSSEMFSEFDKRYTHGRGFITKAINSCHTSSLATPEDKEQAQQMNQKDFLSLIVSILRSWNEPLYHLVTEVRGMQEAPEAILSKAVEIEEQTKRLLEYMELIVSQVHPETKENEIYPVWSGLPSLQMADEESRLSAYYNLLHCLRRDSHKIDNYLKLLKCRIIHNNNC [G157Y] | 96.8 | 15.7 |  |
